This test deals with ligand-binding domain (LBD) of human RORβ (human, UniProt Q92753-2 250-450, Paper numbering follows the 459-aa isoform (RORβ1; Thr210, Cys262, LBD ending at the AF-2 end, 450), so +11 gives the 470-aa entry: printed 250-450 = 261-461. The paper's modelled LBD is 210-450 (= 22). The experiment in a line: ITC; 2 mM SRC-1 peptide titrated into 50-100 µM LBD of RORβ; 20 mM Tris-HCl pH 8.6, 2 mM CHAPS, 100 mM NaCl, 5 mM DTT; Malvern MicroCal PEAQ-ITC. Conditions: both partners purified.
ligand-binding domain (LBD) of human RORβ, sequence (Q92753 250-450): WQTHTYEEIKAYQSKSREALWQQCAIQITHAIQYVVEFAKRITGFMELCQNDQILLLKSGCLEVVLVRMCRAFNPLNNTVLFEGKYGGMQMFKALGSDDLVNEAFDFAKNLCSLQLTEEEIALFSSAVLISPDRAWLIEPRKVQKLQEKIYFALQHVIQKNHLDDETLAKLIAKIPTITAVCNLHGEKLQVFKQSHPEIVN

B1: SRC-1 co-activator peptide (peptide)
peptide: RHKILHRLLQEGSPS
notes: also called SRC-1 peptide; source: synthetic peptide (GenScript)
Consider B1, for which the affinity, expressed as Kd, was 19.8 µM and the dH is -1.1 kcal/mol.

(Values after PMC11772548, “A Complex Interplay Between Melatonin and RORβ: RORβ is Unlikely a Putative Receptor for Melatonin as Revealed by Biophysical Assays” (Molecular Neurobiology, 2024).)
